The text below walks through data of patent US20090018316A1 (IMMUNEX, published 2009).

In experiment [1] the target is T1, native human IL-15 receptor on human cells (human, UniProt Q13261 31-267).
T1 construct: whole, on cells; Endogenous receptor; its subunits on these cells were not defined; Clone W5 was later cloned from W126-VA4 cells, and clones A212 and A133 from A172 cells
As to the kind of experiment: radiolabeled IL-15 binding to the glioblastoma cell line A-172. The source says: (§1) Various human cell lines and tissues were screened for the ability to bind radiolabeled IL-15 substantially as described in Example 1. High affinity binding was observed on activated peripheral blood mononuclear cells, activated monocytes and some EBV-transformed cell lines.

For experiment [2], the target named is T1, native human IL-15 receptor on human …. Nature of the experiment: radiolabeled IL-15 binding to the human fibroblast line W126-VA4.
Text: as §1

Experiment [3] deals with T2, murine IL-15R (full length, cDNA clone D1-4-D5) (murine, UniProt Q60819 33-263).
T2 construct: Cell-surface receptor: recombinant on COS-7 and 32D transfectants, native or endogenous on D10, 32D-01, 32Dmβ-5 and CTLL.2 cells; 32D lines also carry IL-2Rα and γc, and some carry IL-2Rβ; the cell line is named under assay; also called murine IL-15Rα; IL-15Rα
T2 sequence: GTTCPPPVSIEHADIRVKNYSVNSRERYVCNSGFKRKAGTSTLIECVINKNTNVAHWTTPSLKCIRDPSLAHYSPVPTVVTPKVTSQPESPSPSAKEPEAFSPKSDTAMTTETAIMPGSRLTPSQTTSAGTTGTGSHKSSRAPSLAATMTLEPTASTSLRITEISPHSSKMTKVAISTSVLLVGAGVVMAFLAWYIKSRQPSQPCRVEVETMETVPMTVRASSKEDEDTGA
Nature of the experiment: equilibrium binding of 125I-simian IL-15 to D10 cells (native IL-15R).

The target of experiment [4] is T1, native human IL-15 receptor on human …. Nature of the experiment: radiolabeled IL-15 binding to vascular endothelial cells of venous origin.
Text: as §1

The target is the same in experiment [5]. As to the kind of experiment: radiolabeled IL-15 binding to vascular endothelial cells of arterial origin.
Text: as §1

Experiment [6] deals with T2, murine IL-15R (full length, cDNA clone …). Nature of the experiment: 125I-IL-15 binding to monolayers of COS cells transfected with clone D1-4-D5. As to the method: D. Recombinant IL-15R Binding. Plasmid DNA from IL-15 receptor expression plasmid was used to transfect a sub-confluent layer of monkey COS-7 cells using DEAE-dextran followed by chloroquine treatment, as described by Luthman et al., Nucl Acids Res. 11:1295 (1983) and McCutchan et al., J. Natl. Cancer Inst. 41:351 (1968). The cells were then grown in culture for three days to permit transient expression of the inserted sequences. After three days, the cell monolayers were assayed for ¹²⁵I-IL-15 binding essentially as described by Park, et al., J. Exp. Med. 166:476 (1987). Non-specific binding of ¹²⁵I-IL-15 was measured in the presence of 200-fold or greater excess of unlabeled IL-15.

Experiment [7] has the same target. As to the kind of experiment: equilibrium binding of 125I-simian IL-15 to parental 32D-01 cells (endogenous IL-15Rα).
Experiment [8] has the same target. As to the kind of experiment: equilibrium binding of 125I-simian IL-15 to 32Dm15Rα-102 cells (transfected with IL-15Rα).
For experiment [9] the target is unchanged. Nature of the experiment: equilibrium binding of 125I-simian IL-15 to 32Dmβ-5 cells (sites ascribed to endogenous IL-15Rα).
The target is the same in experiment [10]. Nature of the experiment: equilibrium binding of 125I-simian IL-15 to 32Dmβm15Rα-3 cells (recombinant IL-15Rα and IL-2Rβ, γc constitutive).
Experiment [11] has as its target T3, complexes of murine β and γc (IL-2Rβ and common γ chain) in the absence of the IL-15Rα chain (murine, UniProt P16297 27-539; P34902 23-369).
T3 construct: whole, on cells; On 32Dmβ-5 cells, which also express IL-2Rα and about 40 sites per cell of endogenous IL-15Rα; also called murine IL-2Rβ/γc; 32Dmβ-5 cells
T3 sequence (looked up) 1: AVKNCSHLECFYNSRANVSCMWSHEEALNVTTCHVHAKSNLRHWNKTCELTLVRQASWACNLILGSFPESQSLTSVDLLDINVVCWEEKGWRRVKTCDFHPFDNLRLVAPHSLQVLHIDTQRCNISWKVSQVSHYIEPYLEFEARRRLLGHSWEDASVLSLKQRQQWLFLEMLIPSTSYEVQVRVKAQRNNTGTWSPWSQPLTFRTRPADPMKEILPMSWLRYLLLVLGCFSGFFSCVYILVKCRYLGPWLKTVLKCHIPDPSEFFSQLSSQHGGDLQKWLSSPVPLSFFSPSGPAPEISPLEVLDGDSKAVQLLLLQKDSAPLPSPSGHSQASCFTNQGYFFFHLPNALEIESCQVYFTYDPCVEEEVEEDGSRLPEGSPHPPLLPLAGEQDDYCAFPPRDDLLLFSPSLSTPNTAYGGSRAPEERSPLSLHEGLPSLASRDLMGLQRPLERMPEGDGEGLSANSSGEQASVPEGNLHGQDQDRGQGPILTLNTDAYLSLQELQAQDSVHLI
T3 sequence (looked up) 2: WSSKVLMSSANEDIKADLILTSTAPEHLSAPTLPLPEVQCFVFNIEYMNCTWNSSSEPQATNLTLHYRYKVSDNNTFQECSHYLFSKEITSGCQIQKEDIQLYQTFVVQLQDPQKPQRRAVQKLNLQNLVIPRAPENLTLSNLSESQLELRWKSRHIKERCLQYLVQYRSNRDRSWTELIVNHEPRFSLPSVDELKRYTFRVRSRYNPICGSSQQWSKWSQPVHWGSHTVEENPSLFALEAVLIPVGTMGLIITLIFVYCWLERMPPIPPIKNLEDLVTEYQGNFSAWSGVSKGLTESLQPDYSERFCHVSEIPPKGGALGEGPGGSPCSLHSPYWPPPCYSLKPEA
As to the kind of experiment: equilibrium binding of 125I-simian IL-15 to 32Dmβ-5 cells: no IL-15 binding sites beyond those of the 32D-01 parent line.

T1 sequence (Q13261 31-267): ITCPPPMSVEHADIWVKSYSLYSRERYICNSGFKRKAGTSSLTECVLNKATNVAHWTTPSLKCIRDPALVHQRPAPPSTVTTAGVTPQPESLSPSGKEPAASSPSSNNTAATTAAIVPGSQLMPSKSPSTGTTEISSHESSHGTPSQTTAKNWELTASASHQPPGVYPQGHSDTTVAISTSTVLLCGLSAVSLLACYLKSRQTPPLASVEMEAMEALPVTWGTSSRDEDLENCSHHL

B1: Recombinant flag simian IL-15 expressed in yeast (ligand)
chain: DYKDDDDKNWVNVISDLKKIEDLIQSMHIDATLYTESDVHPSCKVTAMKCFLLELQVISHESGDTDIHDTVENLIILANNILSSNGNITESGCKECEELEEKNIKEFLQSFVHIVQMFINTS
modifications: radioiodinated (125I, enzymobead iodination reagent); labelled residues not stated
notes: Flag-tagged simian IL-15 made in yeast, purified and radioiodinated; also called 125I-IL-15; 125I-simian IL-15
As a reminder, the Kd is the equilibrium constant for the complex coming apart. A high value points to lower affinity. Turning to B1, the Kd in experiment [1] was 0.05 to 0.138 nM; in experiment [2], 0.027 nM; in experiment [4], 0.033 nM; in experiment [5] it was 0.163 nM; in [6], 1 to 2.2 nM. Also, the Ka in [3] was 1.3e+11 M⁻¹; in experiment [7], 1.4e+11 M⁻¹; in experiment [8], 1.5e+11 M⁻¹; in experiment [9], 1.9e+11 M⁻¹; in [10], 2.2e+11 M⁻¹. For the same molecule, the binding result in [11] is recorded as “no binding”.
